Assay results as given in patent US5831007.
“And” between values parts separate entries of the source, which are not always exact repeats. Identical values can stand only once.

Legend:
[1] = biological target: Soluble complex of 125I-IL-12 crosslinked to human IL-12R (human) (UniProt P29460); experiment: immunoprecipitation of the solubilized 125I-IL-12/IL-12R complex by the immobilized antibody; control
[2] = biological target: Natural human IL-12 receptor on IL-12R positive human cells (PHA-activated PBMC, K6, Kit-225, YT cells) (human); experiment: steady state 125I-IL-12 binding to PHA-PBMC (5-7 days), Scatchard, first of 3 sites
[3] = biological target: Natural human IL-12 receptor on IL-12R positive human cells (PHA-activated PBMC, K6, Kit-225, YT cells) (human); experiment: equilibrium binding of 125I-IL-12 to PHA-activated PBMCs, Kit-225 and K6 cells, Scatchard, third of 3 sites
[4] = biological target: Natural human IL-12 receptor on IL-12R positive human cells (PHA-activated PBMC, K6, Kit-225, YT cells) (human); experiment: steady state 125I-IL-12 binding to YT cells, Scatchard, second of 2 sites
[5] = biological target: Natural human IL-12 receptor on IL-12R positive human cells (PHA-activated PBMC, K6, Kit-225, YT cells) (human); experiment: equilibrium binding of 125I-IL-12 to PHA-activated PBMCs, Kit-225 and K6 cells, Scatchard, second of 3 sites
[6] = biological target: Detergent solubilized IL-12R from extracts of PHA-activated PBMC, Kit-225 or K6 cells (human); experiment: steady state binding of 125I-IL-12 to proteins immunoprecipitated by immobilized 2-4E6 from solubilized cell extracts, Scatchard (FIG. 14, K6 cells)
[7] = biological target: Natural human IL-12 receptor on IL-12R positive human cells (PHA-activated PBMC, K6, Kit-225, YT cells) (human); experiment: steady state 125I-IL-12 binding to K6 cells, Scatchard, third of 3 sites
[8] = biological target: Natural human IL-12 receptor on IL-12R positive human cells (PHA-activated PBMC, K6, Kit-225, YT cells) (human); experiment: steady state 125I-IL-12 binding to K6 cells, Scatchard, second of 3 sites
[9] = biological target: Natural human IL-12 receptor on IL-12R positive human cells (PHA-activated PBMC, K6, Kit-225, YT cells) (human); experiment: steady state 125I-IL-12 binding to YT cells, Scatchard, first of 2 sites
[10] = biological target: Natural human IL-12 receptor on IL-12R positive human cells (PHA-activated PBMC, K6, Kit-225, YT cells) (human); experiment: steady state 125I-IL-12 binding to K6 cells, Scatchard, first of 3 sites
[11] = biological target: Natural human IL-12 receptor on IL-12R positive human cells (PHA-activated PBMC, K6, Kit-225, YT cells) (human); experiment: steady state 125I-IL-12 binding to Kit-225 cells, Scatchard, third of 3 sites
[12] = biological target: Natural human IL-12 receptor on IL-12R positive human cells (PHA-activated PBMC, K6, Kit-225, YT cells) (human); experiment: equilibrium binding of 125I-IL-12 to PHA-activated PBMCs, Kit-225 and K6 cells, Scatchard, first of 3 sites
[13] = biological target: Natural human IL-12 receptor on IL-12R positive human cells (PHA-activated PBMC, K6, Kit-225, YT cells) (human); experiment: steady state 125I-IL-12 binding to PHA-PBMC (5-7 days), Scatchard, second of 3 sites
[14] = biological target: Natural human IL-12 receptor on IL-12R positive human cells (PHA-activated PBMC, K6, Kit-225, YT cells) (human); experiment: steady state 125I-IL-12 binding to Kit-225 cells, Scatchard, second of 3 sites
[15] = biological target: Natural human IL-12 receptor on IL-12R positive human cells (PHA-activated PBMC, K6, Kit-225, YT cells) (human)
[16] = biological target: Natural human IL-12 receptor on IL-12R positive human cells (PHA-activated PBMC, K6, Kit-225, YT cells) (human); experiment: steady state 125I-IL-12 binding to Kit-225 cells, Scatchard, first of 3 sites
[17] = biological target: Natural human IL-12 receptor on IL-12R positive human cells (PHA-activated PBMC, K6, Kit-225, YT cells) (human); experiment: steady state 125I-IL-12 binding to PHA-PBMC (5-7 days), Scatchard, third of 3 sites

Sequence of Recombinant human IL-12 (Interleukin-12) (P29460 23-328): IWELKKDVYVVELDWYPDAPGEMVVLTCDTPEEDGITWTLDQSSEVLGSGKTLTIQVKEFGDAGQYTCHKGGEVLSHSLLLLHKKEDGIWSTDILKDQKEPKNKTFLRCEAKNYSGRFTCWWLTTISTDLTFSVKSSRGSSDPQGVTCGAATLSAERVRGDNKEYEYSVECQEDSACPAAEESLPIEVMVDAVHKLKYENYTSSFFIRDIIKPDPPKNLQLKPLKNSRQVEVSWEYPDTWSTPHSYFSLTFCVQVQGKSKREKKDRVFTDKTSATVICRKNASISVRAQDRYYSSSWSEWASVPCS
Sequence of Recombinant human IL-12 (Interleukin-12) (chain): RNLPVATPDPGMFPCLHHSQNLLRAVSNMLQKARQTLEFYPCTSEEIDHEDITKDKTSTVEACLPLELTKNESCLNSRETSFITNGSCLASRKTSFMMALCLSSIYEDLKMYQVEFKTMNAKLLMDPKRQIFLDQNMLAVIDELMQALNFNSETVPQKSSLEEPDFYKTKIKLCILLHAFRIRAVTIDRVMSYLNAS

I.P. assay (cpm bound) [1]	Kd [2]	Kd [3]	Kd [4]	Kd [5]	Kd [6]	Kd [7]	Kd [8]	Kd [9]	Kd [10]	Kd [11]	Kd [12]	Kd [13]	Kd [14]	3H-TdR incorporation of PHA-activated PBMC [15]	Kd [16]	Kd [17]	Substance
402 cpm																	Control mAb (Table 1) (antibody)
	0.018 nM	2 nM and 6 nM	0.109 nM	0.05 nM and 0.2 nM	0.188 nM	2.4 nM	0.057 nM	0.006 nM	0.016 nM	2.36 nM	0.005 nM and 0.02 nM	0.084 nM	0.21 nM	38800 cpm	0.023 nM	1.8 nM	Recombinant human IL-12 (Interleukin-12) (from UniProt P29460) (ligand)
